B1: functionally active murine recombinant MASP-2 protein (protein)
chain: SKWPEPVFGRLVSPGFPEKYADHQDRSWTLTAPPGYRLRLYFTHFDLELSYRCEYDFVKLSSGTKVLATLCGQESTDTEQAPGNDTFYSLGPSLKVTFHSDYSNEKPFTGFEAFYAAEDVDECRVSLGDSVPCDHYCHNYLGGYYCSCRAGYVLHQNKHTCSALCSGQVFTGKSGYLSSPEYPQPYPKLSSCTYSIRLEDGFSVILDFVESFDVETHPEAQCPYDSLKIQTDKGEHGPFCGKTLPPRIETDSHKVTITFATDESGNHTGWKIHYTSTARPCPDPTAPPNGSISPVQAIYVLKDRFYVFCKTGFELLQGSVPLKSFTAVCQKDGSWDRPMPECS
B2: catalytically inactive murine MASP-2A recombinant protein (protein)
chain: B1 chain

Molecular target: purified human C4, P0C0L4
Sequence (P0C0L4 whole entry, looked up): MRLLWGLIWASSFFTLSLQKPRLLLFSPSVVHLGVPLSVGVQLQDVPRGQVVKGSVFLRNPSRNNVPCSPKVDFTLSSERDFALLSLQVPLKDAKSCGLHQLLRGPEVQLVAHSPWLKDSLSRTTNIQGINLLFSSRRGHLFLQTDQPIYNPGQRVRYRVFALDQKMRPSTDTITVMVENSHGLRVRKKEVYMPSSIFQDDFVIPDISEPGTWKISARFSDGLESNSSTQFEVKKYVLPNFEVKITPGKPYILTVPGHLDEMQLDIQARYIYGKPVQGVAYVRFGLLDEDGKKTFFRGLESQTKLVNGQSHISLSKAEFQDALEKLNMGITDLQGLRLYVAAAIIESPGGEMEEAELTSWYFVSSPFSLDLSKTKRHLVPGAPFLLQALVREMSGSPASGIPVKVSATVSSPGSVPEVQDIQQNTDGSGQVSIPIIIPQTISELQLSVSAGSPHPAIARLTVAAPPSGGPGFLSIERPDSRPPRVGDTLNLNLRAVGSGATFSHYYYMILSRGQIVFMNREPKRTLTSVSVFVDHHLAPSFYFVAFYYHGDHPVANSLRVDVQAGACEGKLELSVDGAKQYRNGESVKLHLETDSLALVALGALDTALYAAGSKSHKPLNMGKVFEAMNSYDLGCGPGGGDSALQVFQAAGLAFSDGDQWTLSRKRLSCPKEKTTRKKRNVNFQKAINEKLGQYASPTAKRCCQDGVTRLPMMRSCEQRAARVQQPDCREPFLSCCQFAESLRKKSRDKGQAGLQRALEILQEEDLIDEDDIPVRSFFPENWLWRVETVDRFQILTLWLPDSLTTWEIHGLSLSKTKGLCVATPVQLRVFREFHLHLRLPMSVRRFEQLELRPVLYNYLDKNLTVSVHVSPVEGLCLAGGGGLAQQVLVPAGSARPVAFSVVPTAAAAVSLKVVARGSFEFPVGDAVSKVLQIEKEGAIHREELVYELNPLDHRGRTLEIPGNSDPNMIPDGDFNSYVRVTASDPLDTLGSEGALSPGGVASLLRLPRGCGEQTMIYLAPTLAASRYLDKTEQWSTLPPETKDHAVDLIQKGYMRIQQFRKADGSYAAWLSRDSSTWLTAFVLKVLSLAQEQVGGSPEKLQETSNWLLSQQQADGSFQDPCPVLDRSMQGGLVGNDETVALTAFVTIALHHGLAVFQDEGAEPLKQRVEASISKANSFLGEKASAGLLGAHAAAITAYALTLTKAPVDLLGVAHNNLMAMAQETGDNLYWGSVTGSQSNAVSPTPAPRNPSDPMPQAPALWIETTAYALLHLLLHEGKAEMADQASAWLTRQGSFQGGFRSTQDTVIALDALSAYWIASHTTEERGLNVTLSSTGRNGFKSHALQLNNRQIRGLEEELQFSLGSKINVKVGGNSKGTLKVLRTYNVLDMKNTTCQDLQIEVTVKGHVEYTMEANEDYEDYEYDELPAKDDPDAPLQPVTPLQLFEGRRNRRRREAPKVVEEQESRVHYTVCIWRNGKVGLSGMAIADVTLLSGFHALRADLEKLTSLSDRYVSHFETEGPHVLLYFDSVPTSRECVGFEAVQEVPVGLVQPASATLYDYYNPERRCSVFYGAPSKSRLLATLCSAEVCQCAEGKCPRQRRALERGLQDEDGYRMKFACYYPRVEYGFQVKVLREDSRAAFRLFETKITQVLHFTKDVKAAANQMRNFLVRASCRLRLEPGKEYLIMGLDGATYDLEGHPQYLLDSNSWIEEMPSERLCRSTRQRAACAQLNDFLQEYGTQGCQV

Protein	lectin pathway-dependent C4 activation (C4 cleavage assay, C4b deposition on mannan) in pooled MASP-2-/- mouse serum
B1	restored lectin pathway-dependent C4 activation in a protein concentration dependent manner
B2	did not restore C4 activation

Reference: US20060018896
